For four molecules, binding result and Kd results are on record in patent US20210292428A1 (US Dept. of Health and Human Services, published 2021).

The target in assay [1] is T1, recombinant human glypican-3 (human, UniProt P51654 25-559).
T1 construct: also called human GPC3; huGPC3
Nature of the assay: ELISA on recombinant glypican proteins, absorbance OD450nm. A general note: An ELISA detects its analyte on a solid surface through an enzyme-linked reagent.

In assay [2] the target is T2, recombinant human glypican-5 (human, UniProt P78333 25-554, limits assumed).
T2 construct: also called huGPC5
T2 sequence (looked up): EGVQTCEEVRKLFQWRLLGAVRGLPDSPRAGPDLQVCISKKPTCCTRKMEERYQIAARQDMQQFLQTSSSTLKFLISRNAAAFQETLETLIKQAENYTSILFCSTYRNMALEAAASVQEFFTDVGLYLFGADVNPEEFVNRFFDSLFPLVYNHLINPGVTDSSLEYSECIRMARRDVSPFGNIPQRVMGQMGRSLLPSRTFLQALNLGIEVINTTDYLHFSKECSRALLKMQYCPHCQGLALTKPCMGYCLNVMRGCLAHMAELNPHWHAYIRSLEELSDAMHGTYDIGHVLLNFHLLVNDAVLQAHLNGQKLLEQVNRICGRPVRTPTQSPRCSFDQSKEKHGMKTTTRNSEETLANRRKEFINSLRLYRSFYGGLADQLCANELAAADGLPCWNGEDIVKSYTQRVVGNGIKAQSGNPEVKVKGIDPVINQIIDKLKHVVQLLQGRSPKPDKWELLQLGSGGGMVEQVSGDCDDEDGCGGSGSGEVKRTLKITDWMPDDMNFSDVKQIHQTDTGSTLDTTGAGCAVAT
Nature of the assay: ELISA on recombinant human glypicans and mouse GPC2, absorbance OD450nm.

For assay [3], the target named is T3, recombinant human glypican-6 (human, UniProt Q9Y625 24-529).
T3 construct: also called human GPC6; huGPC6
T3 sequence (looked up): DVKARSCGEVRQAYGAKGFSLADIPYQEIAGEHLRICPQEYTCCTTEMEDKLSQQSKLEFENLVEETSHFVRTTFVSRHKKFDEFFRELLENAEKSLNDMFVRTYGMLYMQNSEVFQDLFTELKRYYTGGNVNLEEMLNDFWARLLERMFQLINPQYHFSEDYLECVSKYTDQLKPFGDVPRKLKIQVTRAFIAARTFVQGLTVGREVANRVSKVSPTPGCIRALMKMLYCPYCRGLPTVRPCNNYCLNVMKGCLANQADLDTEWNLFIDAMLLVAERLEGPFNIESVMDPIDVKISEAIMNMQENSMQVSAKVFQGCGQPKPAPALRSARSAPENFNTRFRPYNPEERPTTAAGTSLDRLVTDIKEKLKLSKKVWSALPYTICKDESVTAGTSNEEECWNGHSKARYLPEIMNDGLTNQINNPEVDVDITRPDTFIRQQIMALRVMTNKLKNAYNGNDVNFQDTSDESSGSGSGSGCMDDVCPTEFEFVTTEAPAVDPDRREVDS
The assay is described as above.

The target of another assay is T4, recombinant mouse GPC2 (mouse, UniProt Q8BKV1 22-556, limits assumed).
T4 construct: also called msGPC2
T4 sequence (looked up): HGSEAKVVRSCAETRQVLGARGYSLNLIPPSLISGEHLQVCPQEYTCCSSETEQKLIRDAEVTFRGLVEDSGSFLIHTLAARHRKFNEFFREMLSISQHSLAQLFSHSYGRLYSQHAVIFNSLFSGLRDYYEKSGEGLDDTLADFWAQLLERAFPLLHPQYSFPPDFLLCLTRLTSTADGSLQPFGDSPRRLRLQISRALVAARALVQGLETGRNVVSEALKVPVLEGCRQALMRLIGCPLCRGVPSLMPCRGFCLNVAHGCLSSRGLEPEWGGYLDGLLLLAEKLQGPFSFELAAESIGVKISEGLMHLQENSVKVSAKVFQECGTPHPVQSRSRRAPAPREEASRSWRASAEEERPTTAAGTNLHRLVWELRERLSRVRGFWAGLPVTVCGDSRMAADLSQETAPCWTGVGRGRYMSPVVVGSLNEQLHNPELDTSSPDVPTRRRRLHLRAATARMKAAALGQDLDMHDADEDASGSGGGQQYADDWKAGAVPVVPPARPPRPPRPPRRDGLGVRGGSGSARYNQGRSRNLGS
The description is as above.

In assay [4] the target is T5, recombinant human glypican-4 (human, UniProt O75487 19-529, limits assumed).
T5 construct: also called huGPC4
T5 sequence (looked up): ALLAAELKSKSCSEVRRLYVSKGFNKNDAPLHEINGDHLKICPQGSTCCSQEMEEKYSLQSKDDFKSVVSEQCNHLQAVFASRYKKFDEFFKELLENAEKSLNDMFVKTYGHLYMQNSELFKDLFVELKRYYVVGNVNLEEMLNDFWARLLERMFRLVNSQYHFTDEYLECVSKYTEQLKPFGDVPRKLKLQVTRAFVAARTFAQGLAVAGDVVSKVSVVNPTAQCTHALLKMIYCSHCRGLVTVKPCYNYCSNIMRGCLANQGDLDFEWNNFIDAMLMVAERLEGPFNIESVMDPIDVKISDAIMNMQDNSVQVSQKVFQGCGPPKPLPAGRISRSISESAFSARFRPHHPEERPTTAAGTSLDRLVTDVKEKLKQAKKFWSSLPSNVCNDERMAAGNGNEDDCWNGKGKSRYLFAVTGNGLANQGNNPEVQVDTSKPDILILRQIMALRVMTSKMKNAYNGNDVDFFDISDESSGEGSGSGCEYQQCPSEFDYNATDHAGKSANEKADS
The description is as above.

Assay [5] deals with T6, recombinant human glypican-1 (human, UniProt P35052 24-530).
T6 construct: also called huGPC1
T6 sequence (looked up): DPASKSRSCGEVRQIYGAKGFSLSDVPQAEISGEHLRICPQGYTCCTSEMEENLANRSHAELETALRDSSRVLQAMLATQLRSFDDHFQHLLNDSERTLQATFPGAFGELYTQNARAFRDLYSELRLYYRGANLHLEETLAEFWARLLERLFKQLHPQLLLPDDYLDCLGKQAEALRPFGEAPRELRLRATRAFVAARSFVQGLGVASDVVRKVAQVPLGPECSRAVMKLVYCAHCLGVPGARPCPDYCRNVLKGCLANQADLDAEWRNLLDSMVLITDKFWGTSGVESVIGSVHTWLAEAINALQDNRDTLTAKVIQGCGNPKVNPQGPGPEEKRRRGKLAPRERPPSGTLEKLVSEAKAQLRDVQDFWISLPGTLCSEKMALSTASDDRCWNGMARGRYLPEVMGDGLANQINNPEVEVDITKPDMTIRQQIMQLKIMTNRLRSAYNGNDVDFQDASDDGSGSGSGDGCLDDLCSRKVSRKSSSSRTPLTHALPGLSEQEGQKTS
Described as above.

Assay [6] has as its target T7, recombinant human glypican-2 (GPC2) (human, UniProt Q8N158 24-554, limits assumed).
T7 construct: also called human GPC2; huGPC2
T7 sequence (looked up): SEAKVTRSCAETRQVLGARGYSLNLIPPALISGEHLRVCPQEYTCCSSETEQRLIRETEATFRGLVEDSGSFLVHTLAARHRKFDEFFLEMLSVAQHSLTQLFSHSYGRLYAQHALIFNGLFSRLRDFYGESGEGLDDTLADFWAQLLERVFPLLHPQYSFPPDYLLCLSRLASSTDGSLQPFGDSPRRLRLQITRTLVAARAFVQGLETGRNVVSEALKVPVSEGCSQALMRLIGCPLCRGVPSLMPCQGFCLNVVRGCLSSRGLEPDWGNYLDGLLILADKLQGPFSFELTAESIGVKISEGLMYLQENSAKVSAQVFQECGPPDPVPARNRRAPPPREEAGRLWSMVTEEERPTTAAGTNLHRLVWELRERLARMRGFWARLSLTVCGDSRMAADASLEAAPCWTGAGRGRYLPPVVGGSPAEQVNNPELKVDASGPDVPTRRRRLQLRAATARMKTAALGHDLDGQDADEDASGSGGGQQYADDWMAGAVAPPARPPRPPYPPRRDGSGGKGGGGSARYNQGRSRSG
Nature of the assay: Octet kinetic analysis (BLI), FIG. 1C. On the technique in general: BLI is a label-free optical method that tracks binding on a fibre tip over time.

A further assay deals with T8, Human GPC2-His (human, UniProt Q8N158 24-554).
T8 sequence: T7 sequence (looked up)

Assay [7] concerns the target T2, recombinant human glypican-5. Nature of the assay: ELISA on recombinant glypican proteins, absorbance OD450nm.
The target in assay [8] is T3, recombinant human glypican-6. The description is as above.
The target in assay [9] is T7, recombinant human glypican-2 (GPC2). The assay is described as above.
Assay [10] addresses T9, human GPC2 expressed on the cell surface (human, UniProt Q8N158 24-554).
T9 construct: whole, on cells; also called cell-surface GPC2; GPC2 on LAN1, IMR5, G10, F8, SKNBE2 and NBEB cells
T9 sequence (looked up): T7 sequence (looked up)
Kind of assay: flow cytometry on GPC2-positive neuroblastoma cell lines LAN1 and IMR5, CT5 at 10 ng/ml, counts normalized to mode. For orientation: In flow cytometry, cells or beads pass a laser one at a time.

T1 sequence (P51654 25-559 limits assumed): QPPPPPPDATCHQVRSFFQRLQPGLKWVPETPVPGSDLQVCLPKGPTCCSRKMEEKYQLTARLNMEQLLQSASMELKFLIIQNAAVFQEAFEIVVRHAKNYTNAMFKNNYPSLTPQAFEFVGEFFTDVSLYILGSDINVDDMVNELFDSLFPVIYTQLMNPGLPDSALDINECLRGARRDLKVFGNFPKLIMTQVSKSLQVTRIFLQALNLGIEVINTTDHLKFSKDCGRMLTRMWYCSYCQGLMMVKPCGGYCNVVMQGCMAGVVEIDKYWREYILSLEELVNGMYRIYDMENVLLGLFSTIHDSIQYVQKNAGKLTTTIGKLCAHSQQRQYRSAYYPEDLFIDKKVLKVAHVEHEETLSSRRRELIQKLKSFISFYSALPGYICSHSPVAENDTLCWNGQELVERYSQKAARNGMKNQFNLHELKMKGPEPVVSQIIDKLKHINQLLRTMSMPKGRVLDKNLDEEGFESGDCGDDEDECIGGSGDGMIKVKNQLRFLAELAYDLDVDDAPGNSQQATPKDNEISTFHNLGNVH

B1: CT3 antibody (antibody, IgG1, V domains shown)
VH: EVQLQQSGPELVKPGASVKMSCKASRFTFTDYNIHWVKQSPGKTLEWIGYINPNNGDIFYKQKFNGKATLTINKSSNTAYMELRSLTSEDSAVYYCVRSSNIRYTFDRFFDVWGTGTTVTVSS
VL: ENVLTQSPAIMSASLGEKVTMSCRASSSVNYIYWYQQKSDASPKLWIYYTSNLAPGVPARFSGSGSGNSYSLTISSMEGEDAATYYCQQFSSSPSTFGTGTKLELK
notes: also called anti-GPC2 antibody CT3
Broadly, the Kd is a measure of binding affinity in units of concentration. Turning to B1, the binding result (in assay [1]; in [2]; in assay [3]; in the assay with recombinant mouse GPC2; in [4]; in assay [5]) was “no binding” throughout. Further, the dissociation constant (Kd) in assay [6] was determined as 0.5 nM.

B2: CT3-PE38 immunotoxin (other)
chain: EVQLQQSGPELVKPGASVKMSCKASRFTFTDYNIHWVKQSPGKTLEWIGYINPNNGDIFYKQKFNGKATLTINKSSNTAYMELRSLTSEDSAVYYCVRSSNIRYTFDRFFDVWGTGTTVTVSSGGGGSGGGGSGGGGSENVLTQSPAIMSASLGEKVTMSCRASSSVNYIYWYQQKSDASPKLWIYYTSNLAPGVPARFSGSGSGNSYSLTISSMEGEDAATYYCQQFSSSPSTFGTGTKLELKSAAKASGGPEGGSLAALTAHQACHLPLETFTRHRQPRGWEQLEQCGYPVQRLVALYLAARLSWNQVDQVIRNALASPGSGGDLGEAIREQPEQARLALTLAAAESERFVRQGTGNDEAGAANGPADSGDALLERNYPTGAEFLGDGGDVSFSTRGTQNWTVERLLQAHRQLEERGYVFVGYHGTFLEAAQSIVFGGVRARSQDLDAIWRGFYIAGDPALAYGYAQDQEPDARGRIRNGALLRVYVPRSSLPGFYRTSLTLAAPEAAGEVERLIGHPLPLRLDAITGPEEEGGRLETILGWPLAERTVVIPSAIPTDPRNVGGDLDPSSIPDKEQAISALPDYASQPGKPPREDLK
In the case of B2, in the assay with Human GPC2-His, binding was put at a Kd of 0.22 nM.

B3: CT5 antibody (antibody, IgG1, V domains shown)
VH: EVKLVESGGGLVQSGRSLRLSCATSGFTFSDFYMEWVRQAPGKGLEWIVASRDKANDYTTAYSASVKGRFIVSRDTSQSILYLQMNALRAEDTAIYYCVRDFYDYDEAYWGQGTLVTVS
VL: DIQMTQSPSSLSASLGGTVTITCKASEDINNYIAWYQHKPGKGPRLLIQYTSTLQPGIPSRFSGSGSGRDYSLSISNLEPEDIATYYCLQYDILWTFGGGTKLEIK
As for B3, the binding result in assay [7] is “no binding”; in assay [8] it was “no binding”; in [9], “binds”; in assay [1] it was “no binding”; in assay [10], “binds”.

B4: CT3-T20 immunotoxin (other)
chain: EVQLQQSGPELVKPGASVKMSCKASRFTFTDYNIHWVKQSPGKTLEWIGYINPNNGDIFYKQKFNGKATLTINKSSNTAYMELRSLTSEDSAVYYCVRSSNIRYTFDRFFDVWGTGTTVTVSSGGGGSGGGGSGGGGSENVLTQSPAIMSASLGEKVTMSCRASSSVNYIYWYQQKSDASPKLWIYYTSNLAPGVPARFSGSGSGNSYSLTISSMEGEDAATYYCQQFSSSPSTFGTGTKLELKKLKASGGRHRQPRGWEQLGGGGGSPTGAEFLGDGGDVSFSTRGTQNWTVERLLQAHAQLEERGYVFVGYHGTALEAAQSIVFGGVRARSQDLDAIWRGFYIAGDPAHAYGYAQDQEPDARGRIANGALLRVYVPASSLPGFYRTSLTLAAPEAAGEVERLIGHPLPLRLDAITGPEEEGGREETILGWPLAERTVVIPSAIPTDPRNVGGDLDPSSIPDKEQAISALPDYASQPGKPPREDLK
Molecule B4 returned a Kd in the assay with Human GPC2-His of 0.16 nM.
